B1: ZNF207 (parent)
chain: FPSAGQAQAAVQGPVGTDFKPLNS

Variants of: B1
Test: protein stability index of a GFP-peptide fusion (GPS, HEK-293T) (PSI 1-6); higher = more stable
Settings: c terminus: a fixed tail appended
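Also: lentivirally expressed fusions sorted by FACS into six bins by GFP to DsRed ratio, PSI derived from sequencing read proportions per bin multiplied by bin number.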

Protein stability index of substitutions, site by site:
P14: N 3.68; W 1.97; C 3.04; L 3.04; G 3.54; F 2.55; D 4.01; Q 3.62; A 3.47; Y 3.44; R 3.36; K 2.8; S 3.34; H 3.71; M 3.22; E 3.92; I 2.98; V 3.32; T 3.3
A10: Y 2.95; T 3.41; V 2.99; K 2.87; P 3.25; N 3.13; S 3.73; M 3.18; W 2.24; F 2.22; R 3.05; D 3.69; H 3.55; G 3.72; C 2.75; L 3.18; I 3.22; E 3.8; Q 3.42
A9: M 3.06; F 2.02; I 2.86; K 3.52; V 2.93; Y 2.13; W 2.45; D 4.02; R 3.47; E 3.74; C 3.37; G 3.13; T 2.99; Q 4.06; H 3.31; N 3.83; L 2.62; P 3.53; S 3.1
G16: M 3.04; H 3.52; F 3.17; P 3.42; A 3.13; W 2.3; R 3.42; S 3.48; I 3.27; L 3.21; Q 3.93; T 3.64; N 3.65; V 3.25; D 3.75; K 3.12; C 3.37; E 3.94; Y 2.9
L22: T 3.64; I 3.71; A 3.67; P 3.63; E 3.81; G 3.25; M 3.69; C 3.35; Q 2.92; W 2.69; N 4.33; K 3.58; S 3.95; Y 3.61; V 3.86; D 4.46; F 3.61; R 3.89; H 4.15
G13: E 3.79; L 3.69; H 3.37; P 3.57; F 2.9; W 2.53; D 3.74; K 3.76; A 3.26; S 3.69; C 3.4; M 3.38; I 3.22; V 3.23; N 3.58; Y 3.12; T 3.52; Q 3.09; R 3.5
F19: T 3.55; R 4.11; E 4.06; Y 3.79; W 3.41; M 3.76; G 4.15; N 4.33; P 3.29; S 4.03; A 3.85; L 3.91; D 4.4; Q 3.97; H 3.77; I 3.64; K 4.17; C 3.49; V 3.35
S24: E 3.77; F 2.63; G 3.15; L 3.12; H 3.73; A 3.36; K 3.71; I 2.98; D 4.02; C 3.31
Q8: I 2.76; E 4.04; S 3.68; N 3.57; L 2.11; K 3.89; Y 1.71; G 3.77; C 3.23; D 3.87; H 3.35; W 1.89; P 3.38; T 3.47; A 4.04; F 1.48; M 2.72; V 3.31; R 3.47
T17: C 3.12; A 3.03; G 3.78; P 3.3; S 3.88; M 3.03; F 3.05; L 2.84; E 3.9; D 4.02; H 3.26; K 3.27; I 3.03; Y 2.85; N 3.65; W 2.25; R 3.19; V 2.81; Q 4.12
V15: Y 2.93; H 3.29; T 3.7; S 3.84; K 3.58; M 3.01; G 3.1; E 3.77; A 3.62; C 3.16; L 3.44; F 2.73; N 3.88; R 3.28; D 3.49; W 1.75; I 3.84; P 3.63; Q 3.62
A7: H 3.55; R 3.26; M 2.93; I 3.15; S 3.87; D 3.98; F 2.17; L 2.27; P 3.51; W 2.44; K 3.49; Q 3.5; G 3.58; T 3.49; N 3.94; V 3.36; C 2.47; Y 1.65; E 3.94
D18: P 3.11; R 2.96; C 2.65; H 2.74; I 2.67; W 2.51; M 2.85; F 2.34; V 2.61; G 2.8; L 2.32; E 3.63; Y 2.36; Q 3.02; S 2.81; A 3.31; K 2.99; N 3.79; T 3.4
K20: W 2.59; H 3.49; A 3.2; L 3.2; P 3.35; D 4.07; S 3.34; R 3.49; G 3.77; V 3.25; T 3.59; M 3.33; C 3.85; Q 3.47; I 3.34; F 2.35; E 3.98; N 3.72; Y 2.79
N23: F 2.41; I 3.15; P 3.03; C 3.37; K 3.48; R 3.91; M 3.17; G 3.07; A 2.88; V 2.93; D 3.55; L 2.71; S 3.25; H 3.44; W 2.01; Q 3.22; Y 2.68; T 3.45; E 3.44
Q12: L 2.67; R 3.1; A 3.13; F 2.28; S 3.36; G 3.37; I 2.54; H 3.18; Y 2.46; V 3.36; K 3.38; M 2.83; D 3.69; N 3.41; P 3.88; E 3.18; T 3.61; C 3.51
P21: D 3.81; W 2.67; N 3.62; A 3.59; I 2.87; R 3.77; F 2.81; C 3.29; V 2.87; Y 3.31; Q 3.88; S 3.62; E 3.55; M 3.36; T 3.17; K 3.69; G 3.13; H 3.28; L 2.51
V11: N 3.32; W 2.38; A 3.73; G 3.72; I 3.25; Y 3; M 3.36; F 2.58; S 4.27; T 3.58; E 3.84; K 3.45; Q 3.72; C 3.1; H 3.74; R 4.12; D 3.68; P 3.62; L 3.07
Q6: W 1.47; Y 1.94

— the supplement of paper PMC10567573
